Results: paper PMC6516834

Key:
[1] = biological target: end-labeled Ndc80 complex Nuf2 S2C Spc25 S154C (cysteine-light, concurrently labeled with Cy3 and Alexa Fluor 647, for single molecule FRET) (S. cerevisiae) (UniProt P40460); assay: single molecule three-color TIRF co-localisation; end-labeled Ndc80 complex and GFP-MIND pre-incubated 1:10 for 15 min at room temperature, then tethered by anti-penta-His antibody to lipid-coated coverslips; co-localisation of GFP with Cy3 and Alexa Fluor 647
[2] = biological target: taxol-stabilized microtubules (bovine brain tubulin) (bovine) (UniProt Q6B856); assay: single molecule TIRF microscopy (residence time on microtubules); fluorescent complexes in solution on taxol-stabilized microtubules; standard BRB80 buffer; mean residence time, error by bootstrapping
[3] = biological target: Ndc80-MIND-GFP co-complex (S. cerevisiae) (UniProt P40460); assay: single molecule TIRF microscopy (residence time on microtubules); as a1, with free Spc24/Spc25 dimer (wild type or mutant) added in trans: sixtyfold excess over Broccoli-GFP, tenfold excess over Ndc80-MIND-GFP

free Spc24/Spc25 dimer, sequence (Q04477 whole entry): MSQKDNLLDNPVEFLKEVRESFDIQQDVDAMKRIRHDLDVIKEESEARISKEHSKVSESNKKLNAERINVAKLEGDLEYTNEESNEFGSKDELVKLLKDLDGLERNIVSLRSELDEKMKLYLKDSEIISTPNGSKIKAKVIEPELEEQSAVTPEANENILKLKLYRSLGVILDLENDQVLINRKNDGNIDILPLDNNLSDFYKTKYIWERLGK
free Spc24/Spc25 dimer, sequence (P40014 whole entry): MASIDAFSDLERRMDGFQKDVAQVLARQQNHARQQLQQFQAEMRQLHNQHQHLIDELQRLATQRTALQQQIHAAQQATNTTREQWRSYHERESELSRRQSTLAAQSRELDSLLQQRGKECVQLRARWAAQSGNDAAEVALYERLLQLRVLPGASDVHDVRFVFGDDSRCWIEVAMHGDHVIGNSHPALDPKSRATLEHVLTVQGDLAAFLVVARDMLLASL

Row | mean residence time of the Ndc80-MIND-GFP co-complex on microtubules with a tenfold excess of the binder [3] [s] | Substance | also measured
1 |  | MIND complex carrying an N-terminal FLAG tag on Nsl1 and a C-terminal GFP on Mtw1 (from UniProt P39731 1-289; Q12143 1-216; P40568 1-576) | percent of the end-labeled Ndc80 complexes in co-complex with MIND (tenfold excess of GFP-MIND) [1]: 33%
2 |  | Ndc80-MIND-GFP co-complex (from UniProt P40460 1-691; P33895 1-451; Q04477 1-213; P40014 1-221; P39731 1-289; P40568 1-576; Q12143 1-216) | mean residence time on microtubules [2]: 9.8 s
3 | 4.2 | Spc24/Spc25 V159D dimer (from UniProt Q04477 1-213; P40014 1-221) (complex) | 
4 | 4.1 | free Spc24/Spc25 dimer (from UniProt Q04477 1-213; P40014 1-221) (complex) | 
